# Experimental data taken from patent US20240262912A1 (MERUS N V, published 2024).
# T1: Human CLEC12A on cells (HL60, CLEC12A-CHO-K1, primary blood, bone marrow and AML cells) (human, UniProt Q5QGZ9 1-265)
# T1 sequence: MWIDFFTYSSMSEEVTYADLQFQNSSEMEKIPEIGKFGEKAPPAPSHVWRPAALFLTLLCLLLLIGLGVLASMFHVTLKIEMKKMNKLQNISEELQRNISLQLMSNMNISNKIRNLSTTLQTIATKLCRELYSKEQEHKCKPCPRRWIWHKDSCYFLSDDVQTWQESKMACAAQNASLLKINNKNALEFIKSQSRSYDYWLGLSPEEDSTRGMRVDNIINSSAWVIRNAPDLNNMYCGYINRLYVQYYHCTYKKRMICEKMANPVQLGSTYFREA
# T2: Recombinant purified CLEC12A-His (Sino Biologicals) (human, UniProt Q5QGZ9 65-265)
# T2 construct: Bought protein; 11896-H07H; not shown: His tag
# T2 sequence: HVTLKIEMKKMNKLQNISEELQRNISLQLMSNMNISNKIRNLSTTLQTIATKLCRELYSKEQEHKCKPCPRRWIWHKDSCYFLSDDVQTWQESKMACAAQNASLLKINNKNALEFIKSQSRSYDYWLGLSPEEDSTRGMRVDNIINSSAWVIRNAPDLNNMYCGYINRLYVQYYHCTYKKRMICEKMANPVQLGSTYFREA
# B1: Antibody MF4327×MF5196, full length human IgG1 CLEC12AxCD3 bispecific antibody with silenced Fc effector function (bispecific antibody, V domains shown)
# VH 1: QVQLVQSGAEVKKPGASVKVSCKASGYTFTSYYMHWVRQAPGQGLEWMGIINPSGGSTSYAQKFQGRVTMTRDTSTSTVYMELSSLRSEDTAVYYCAKGTTGDWFDYWGQGTLVTVSS
# VH 2: QVQLVQSGGGVVQPGRSLRLSCVASGFTFSSYGMHWVRQAPGKGLEWVAAIWYNARKQDYADSVKGRFTISRDNSKNTLYLQMNSLRAEDTAVYYCTRGTGYNWFDPWGQGTLVTVSS
# VL: not shown
# notes: Full length human IgG1 with a common light chain; The CH3 domains are engineered for heterodimerisation, and changes in the CH2 regions remove Fc effector function; also called CLEC12AxCD3 bispecific IgG; Fcγ receptor-silenced antibody MF4327×MF5196
# Tests used:
# [1] = target: T1, Human CLEC12A on cells (HL60, …); assay: cell-based or functional assay
# [2] = target: T1, Human CLEC12A on cells (HL60, …); assay: cell-based or functional assay; remark: listed apart in the source
# [3] = target: T1, Human CLEC12A on cells (HL60, …); assay: cell-based or functional assay; remark: listed apart in the source
# [4] = target: T2, Recombinant purified CLEC12A-His (Sino …); assay: SPR (Biacore T100); antibody captured on CM5 chip through mouse anti-human IgG, recombinant CLEC12A-His run over the surface
# Text: Recombinant purified CLEC12A-His (Sino Biologicals) or recombinant CD36F-Fc protein was subsequently run over the surface using a Biacore T100 instrument (GE Healthcare).
binder,measurement,setting,value
B1,"median fold T cell expansion in primary AML samples, day 10",[1],48 fold
same,"CD25 on CD4 T cells, mean EC50 (HL60 cytotoxicity assay)",[2],0.351 µg/mL
same,"CD25 on CD8 T cells, mean EC50 (HL60 cytotoxicity assay)",[2],0.0957 µg/mL
same,"CD69 on CD4 T cells, mean EC50 (HL60 cytotoxicity assay)",[2],0.156 µg/mL
same,"CD69 on CD8 T cells, mean EC50 (HL60 cytotoxicity assay)",[2],0.0444 µg/mL
same,"HL60 cell lysis, mean EC50",[2],0.0682 µg/mL
same,"fold T cell expansion, primary AML sample of patient 10, day 10",[3],25 fold
same,"fold T cell expansion, primary AML sample of patient 11, day 10",[3],6 fold
same,"fold T cell expansion, primary AML sample of patient 12, day 10",[3],37 fold
same,"fold T cell expansion, primary AML sample of patient 13, day 10",[3],139 fold
same,"fold T cell expansion, primary AML sample of patient 14, day 10 (1,000 ng/mL)",[3],64 fold
same,"fold T cell expansion, primary AML sample of patient 15, day 10 (1,000 ng/mL)",[3],25 fold
same,"fold T cell expansion, primary AML sample of patient 16, day 10",[3],15 fold
same,"fold T cell expansion, primary AML sample of patient 17, day 10",[3],98 fold
same,"fold T cell expansion, primary AML sample of patient 18, day 10",[3],20 fold
same,"fold T cell expansion, primary AML sample of patient 19, day 10",[3],60 fold
same,"fold T cell expansion, primary AML sample of patient 20, day 10 (1,000 ng/mL)",[3],157 fold
same,Kd,[4],3 nM
